Measurements taken from PMC8298602 (2021).

Assays:
[1] = biological target: Nedd^335-455pS342 + pT367 (human, UniProt Q96PU5 335-455, S448A, phosphoserine at 342, phosphothreonine at 367); experiment: AUC
[2] = biological target: Nedd^335-455pT367 + pS448 (human, UniProt Q96PU5 335-455, S342A, phosphothreonine at 367, phosphoserine at 448); experiment: AUC

B1: 14-3-3η (natural protein)
chain: MGDREQLLQRARLAEQAERYDDMASAMKAVTELNEPLSNEDRNLLSVAYKNVVGARRSSWRVISSIEQKTMADGNEKKLEKVKAYREKIEKELETVCNDVLSLLDKFLIKNCNDFQYESKVFYLKMKGDYYRYLAEVASGEKKNSVVEASEAAYKEAFEISKEQMQPTHPIRLGLALNFSVFYYEIQNAPEQACLLAKQAFDDAIAELDTLNEDSYKDSTLIMQLLRDNLTLWTSDQQDEEAGEGN
[1]
  Kd: 200 nM
[2]
  Kd: 170 nM
